# Experimental data taken from the RNAGym collection of RNA variant scans (doi:10.1073/pnas.2313332121).
# This sample holds only a part of the variants without activity.
# B1: TPR 5TU (parent)
# chain: GGAUCUUCUCGAUCUAACAAAAAAGACAAAUCUGCCACAAAGCUUGAGAGCAUCUUCGGAUGCAGAGGCGGCAGCCUUCGGUGGCGCGAUAGCGCCAACGUUCUCAACUAUGACACGCAAAACGCGUGCUCCGUUGAAUGGAGUUUAUCAUG
# Variants of: B1
# Experiment: polymerase ribozyme fitness, log enrichment relative to wild type (log ratio); higher = more active; in vitro selection for triplet polymerase activity
# Method in brief: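 Frozen incubation at −7 °C formed the core of a single, triplicate in vitro selection round applied to PCR-built, transcribed mutant libraries of each subunit of a heterodimeric triplet polymerase ribozyme. Extended constructs were gel-excised, captured with streptavidin beads and amplified by RT-PCR, and input and output libraries were Illumina-sequenced with a filter of ≥10 input reads and ≥1 read per output. Fitness is the logarithm of genotype enrichment relative to wild-type enrichment, with inverse-variance-weighted replicate averaging, and the logarithm is base 2.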
row,Variant,polymerase ribozyme fitness (log ratio)
1,U15C U145C A150G,-0.684
2,A41G G65A G143U,-3.42
3,A17C G68C C85G C125U G143C,≤ -4.2
4,C5A C87U,-0.502
5,U82G C85A C95U U146A A150U,-1.37
6,A17G A23U U55G A66C,≤ -4.2
7,U15C A21C U56C G83A,-0.11
8,A12U A19U C35A U61G C69U U78G G80C A97C G126U,≤ -4.2
9,G74A C85U,-3.54
10,A22G G58A A120G C123A C129G,-3.06
11,A40U C76A C79A C114U G143U U146C U148A,≤ -4.2
12,C57U G58C A60U G88A C99A,≤ -4.2
13,A22C U44A C87U C103U,≤ -4.2
14,A28U C99A,-4.15
15,C18U A21C G141A,0.0565
16,C5G U45G U55G G86U C87A A91U,≤ -4.2
17,A20U A40C U55A A73U,-3.94
18,A12U A22G A29C G42U C87U C93A,≤ -4.2
19,C96A C116G G136C,-3.22
20,C18G U31A A120G G128U A137G,-4.17
21,A16G G48A A122U C149U,-3.58

row,Variant,polymerase ribozyme fitness (log ratio)
1,G46C U61G U78A C93A,≤ -4.2
2,A40C U44G C63U C95U C103G A115G A142C,≤ -4.2
3,U9G C10G C87G C93U G124C,≤ -4.2
4,C14U G83U G88C A147G,≤ -4.2
5,A52G U56C C93A,-2.44
6,U4C A12U C57G C85U A98G G128U,≤ -4.2
7,C54U G84C C93U U144C,≤ -4.2
8,C57G G58C A137C,-3.85
9,G11U C38A C125U,-2.71
10,U56A C69U A106G,-1.79
11,G59C G83U,0.0759
12,U56A C85U A142U,-1.06
13,C27U G59A G67C G86C C99U,≤ -4.2
14,G34U C51A G84C,≤ -4.2
15,C76U C95U,0.961
16,C87U G133U,-2.95
17,A73U C75U C118G,≤ -4.2
18,C95U A98C,-1
19,U56A G81A C103G A121G A122U,-1.56
20,A19C C51U A142C,-0.768
21,U31A C93A A115C,-1.71

row,Variant,polymerase ribozyme fitness (log ratio)
1,A12U C87A U90C A113G C131U,≤ -4.2
2,A37G C95G C114U A119U A120G,≤ -4.2
3,U33C C87G G152A,≤ -4.2
4,A24U A28U C79G A91U A97U C116U C132U U135A,≤ -4.2
5,G25U G46C G50C A66G U90C G100C U104A U146C G152A,≤ -4.2
6,A3U G62U G94A,-1.08
7,G11C C114U U139A,≤ -4.2
8,G70C C75A U109G A137C,≤ -4.2
9,C129A G143A A150G,-3.66
10,A40G C85A G133C G136A,-3.86
11,G50C G94A A107G U134C,≤ -4.2
12,C35U C99G A119C G141U,-1.83
13,U56A G70C U78A U82A C131A,≤ -4.2
14,U31G U53G G70U A89U C93U C114A C123G U135C G152U,≤ -4.2
15,U53A G58U C95A U144A C149A,≤ -4.2
16,G86U G143A,-2.53
17,A3G U13C A98U A107U,-4
18,G42A G84A,-3.95
19,C5G A52G G83C C93U,-3.55
20,U4C A22U C32G C38G G65C G81A C118U C149U,≤ -4.2
21,U31G A89C C95G C99A,≤ -4.2

row,Variant,polymerase ribozyme fitness (log ratio)
1,U6G A39C C85A A98G G126C,-3.91
2,G68A G88C A110C U135C,≤ -4.2
3,U31A A52G G84U,-0.528
4,C8G A23U C27G A40G A49C C87U U104G U134G G140A,≤ -4.2
5,U6G G141A,0.243
6,G71A C99U,≤ -4.2
7,A29G C93A A122G G124A,≤ -4.2
8,U77G U82A A110C G136A A137U A138U,≤ -4.2
9,C54U C95U,-0.851
10,U15C A16C C85U C118A,-2.79
11,C63G U102G C105U,≤ -4.2
12,A39C G68A G80A C118U G128U,≤ -4.2
13,U77G C99A G140A,≤ -4.2
14,A19C A107G,-3.75
15,G84U G88A A120C,≤ -4.2
16,U53A A107U,-2.93
17,A16C A17U A20U C38A C57U A60C G84A C116G,≤ -4.2
18,C75G G88A U146G,≤ -4.2
19,U13G C38U C63U C76U A91G C93G C95U C149U,≤ -4.2
20,G11A A41U A52U U55A C118U,≤ -4.2
21,C103G A119C,-1.49
